T1: human TL1A-His protein (human, UniProt O95150 72-251)
T1 construct: also called human TL1A extracellular domain (TL1A-ECD) with 6×His tag
T1 sequence: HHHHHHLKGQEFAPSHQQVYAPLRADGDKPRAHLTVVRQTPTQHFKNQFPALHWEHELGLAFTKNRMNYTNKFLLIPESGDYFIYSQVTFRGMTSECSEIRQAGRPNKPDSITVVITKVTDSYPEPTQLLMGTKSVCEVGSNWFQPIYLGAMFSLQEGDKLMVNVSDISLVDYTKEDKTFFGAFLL

B1: 311V25 (antibody, human IgG1, kappa, L234A L235A, V domains shown)
VH: EVQLVESGGGLVQPGGSLKLSCAASGFTFSNYWMNWVRQASGKGLEWVGGIRLKSNNYATQYAESVKGRFTISRDDSKNTAYLQMNSLKTEDTAVYYCTPLLLNGMDYWGQGTTVTVSS
VL: EIVLTQSPDFQSVTPKEKVTITCSASSSVSYMHWYQQKPDQSPKLWIYDTSNLASGVPSRFSGSGSGTDFTLTINSLEAEDAATYYCFQESGYPFTFGQGTKLEIKR
B2: 311V34 (antibody, human IgG1, kappa, L234A L235A, V domains shown)
VH: EVQLVESGGGLVQPGGSLKLSCAASGFTFSNYWMNWVRQASGKGLEWVGGIRLKSNNYRTQYAESVKGRFTISRDDSKNTAYLQMNSLKTEDTAVYYCTPLLLNGMDYWGQGTTVTVSS
VL: EIVLTQSPDFQSVTPKEKVTITCSASSSVSYMHWYQQKPDQSPKLWIYDTSNLASGVPSRFSGSGSGTDFTLTINSLEAEDAATYYCFQESGYPFTFGQGTKLEIKR
B3: 311V25-7 (antibody, human IgG1, kappa, L234A L235A, V domains shown)
VH: EVQLVESGGGLVQPGGSLKLSCAASGFTFSNYWMNWVRQASGKGLEWVGGIRLKSNNYATQYAESVKGRFTISRDDSKNTAYLQMNSLKTEDTAVYYCTPLLLSGMDYWGQGTTVTVSS
VL: EIVLTQSPDFQSVTPKEKVTITCSASSSVSYMHWYQQKPDQSPKLWIYDTSNLASGVPSRFSGSGSGTDFTLTINSLEAEDAATYYCFQESGYPFTFGQGTKLEIKR
B4: 311V31 (antibody, human IgG1, kappa, L234A L235A, V domains shown)
VH: EVQLVESGGGLVQPGGSLKLSCAASGFTFSNYWMNWVRQASGKGLEWVGGIRLKSNNYKTQYAESVKGRFTISRDDSKNTAYLQMNSLKTEDTAVYYCTPLLLNGMDYWGQGTTVTVSS
VL: EIVLTQSPDFQSVTPKEKVTITCSASSSVSYMHWYQQKPDQSPKLWIYDTSNLASGVPSRFSGSGSGTDFTLTINSLEAEDAATYYCFQESGYPFTFGQGTKLEIKR
B5: 311V34-7 (antibody, human IgG1, kappa, L234A L235A, V domains shown)
VH: EVQLVESGGGLVQPGGSLKLSCAASGFTFSNYWMNWVRQASGKGLEWVGGIRLKSNNYRTQYAESVKGRFTISRDDSKNTAYLQMNSLKTEDTAVYYCTPLLLSGMDYWGQGTTVTVSS
VL: EIVLTQSPDFQSVTPKEKVTITCSASSSVSYMHWYQQKPDQSPKLWIYDTSNLASGVPSRFSGSGSGTDFTLTINSLEAEDAATYYCFQESGYPFTFGQGTKLEIKR
B6: 311V31-7 (antibody, human IgG1, kappa, L234A L235A, V domains shown)
VH: EVQLVESGGGLVQPGGSLKLSCAASGFTFSNYWMNWVRQASGKGLEWVGGIRLKSNNYKTQYAESVKGRFTISRDDSKNTAYLQMNSLKTEDTAVYYCTPLLLSGMDYWGQGTTVTVSS
VL: EIVLTQSPDFQSVTPKEKVTITCSASSSVSYMHWYQQKPDQSPKLWIYDTSNLASGVPSRFSGSGSGTDFTLTINSLEAEDAATYYCFQESGYPFTFGQGTKLEIKR
B7: humanized antibody 31122 (antibody, human IgG1, kappa, L234A L235A, V domains shown)
VH: EVQLVESGGGLVQPGGSLKLSCAASGFTFSNYWMNWVRQASGKGLEWVGGIRLKSNNYTTQYAESVKGRFTISRDDSKNTAYLQMNSLKTEDTAVYYCTPLLLNGMDYWGQGTTVTVSS
VL: EIVLTQSPDFQSVTPKEKVTITCSASSSVSYMHWYQQKPDQSPKLWIYDTSNLASGVPSRFSGSGSGTDFTLTINSLEAEDAATYYCFQESGYPFTFGQGTKLEIKR
notes: Humanized from 311C9E10; human IgG1/kappa
B8: humanized antibody 72851 (antibody, human IgG1, kappa, L234A L235A, V domains shown)
VH: QVQLVQSGAEVKKPGASVKVSCKASGYSFTGYTMNWVRQAPGQNLEWIGLINPYSGGTNYNQKFKGRATLTVDTSISTAYMELSRLRSDDTAVYYCASIYQRHDGIAYWGQGTLVTVSS
VL: EIVLTQSPDFQSVTPKEKVTITCSASSSVNYMHWYQQKPDQSPKLLIKDTSKLASGVPSRFSGSGSGTDFTLTINSLEAEDAATYYCQQWSSSPYTFGGGTKVEIKR
notes: Humanized from 728H4D9; human IgG1/kappa

One assay deals with T1, human TL1A-His protein. The experiment in a line: ELISA. Background: ELISA stands for enzyme-linked immunosorbent assay.
Take B1: the binding result was “binds”.

With B2, the binding result was “binds”. Turning to B3, the binding result is reported as “binds”. The same measure, in the same setting: then B4, with “binds”; and B5, with “binds”. Turning to B6, the binding result was “binds”.

In a further assay the target is T1, human TL1A-His protein. The experiment in a line: SPR (Biacore 8K), antibody captured on Protein A chip, TL1A-his as analyte. Background: In SPR one partner is held on a chip, and binding of the other changes the refractive index at the surface.
In the case of positive control antibody PRA023, the Kd is 0.537 nM, the koff came to 0.000166 s⁻¹ and the kon worked out at 308000 M⁻¹ s⁻¹.

B7 yielded a Kd of 0.394 nM, a koff of 0.000159 s⁻¹ and a kon of 405000 M⁻¹ s⁻¹.

As to B8, the Kd was determined as 0.212 nM, the koff stood at 0.000212 s⁻¹ and the kon was found to be 1e+06 M⁻¹ s⁻¹.

Usually Kd stands for the concentration at which binding is half-saturated. Read a low Kd as tighter binding. By koff is commonly meant the first-order rate constant of dissociation. A lower koff goes with a long-lived complex. One may read the kon as a measure of how fast the partners come together. Higher therefore signals faster complex formation.

These data come from patent EP4674870A1 (Sunshine Guojian Pharmaceutical (Shanghai) Co., Ltd., dated 2026).
